# Measurements taken from the supplement of paper PMC10567573.
# ± gives the standard deviation.
# Experiment: protein stability index of a GFP-peptide fusion (GPS, HEK-293T) (PSI 1-6); higher = more stable
# [1] = treatment: DMSO, c terminus: a fixed tail appended
# [2] = treatment: MLN4924 1 uM, 8 h, c terminus: a fixed tail appended
# 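Note: 24-mer peptide tiles fused after GFP, lentivirally expressed, FACS-sorted into six equal bins by GFP/DsRed ratio, decoded by Illumina sequencing, PSI is the read-weighted mean bin number.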
Sequence,protein stability index [1],protein stability index [2],"protein stability index (treatment: DMSO, c terminus: native)","protein stability index (treatment: MLN4924 1 uM, 8 h, c terminus: native)"
AAAATVLLRTARVRRECWFLPTAL [SLC19A2],2.51 ± 0.54,2.28 ± 0.42,–,–
AAASGAAGGGGGGAGAGAPGGGRL [INTS3],4.98 ± 0.2,4.91 ± 0.26,–,–
AAIVVNGHGMTPLKVAAESCKADV [FEM1B],3.38 ± 0.39,3.3 ± 0.35,–,–
AAQEGHLELVKYLLAAGANVHATT [ANKRD17],2.34 ± 0.3,2.74 ± 0.35,–,–
ADESVLWQLFGPFGAVTNVKVIRD [ELAVL3],2.23 ± 0.18,2.35 ± 0.33,–,–
ADGQESTPPTPAPTSGIVGALMEV [WASL],4.86 ± 0.1,4.56 ± 0.17,–,–
ADLLEEEVIISWSEKASKKYVSKE [EIF5],3.98 ± 0.31,4.16 ± 0.41,–,–
ADSLDFDETFLATSFLQHPWDESG [FOXJ1],4.22 ± 0.087,4.08 ± 0.13,–,–
ADSMLMQGSRGLTDQAIFYAVTPL [HDAC6],2.54 ± 0.39,2.46 ± 0.44,–,–
AEDTEKKDEPSKYNQQQALIDQRY [CEP70],5.2 ± 0.31,5.36 ± 0.059,–,–
AEEKEQLLHNDEYQETMVESTFMY [USP39],4.69 ± 0.27,4.8 ± 0.2,–,–
AEGTTGLAPAGQTSEESRPRLSQL [TNXB],5.66 ± 0.21,5.36 ± 0.25,–,–
AELQAELLHSQARLAELEAQVRKL [FBF1],4.29 ± 0.21,4.26 ± 0.092,–,–
AFRALASAQCPQFGIPRKRLKQS [SPOPL],–,–,2.74 ± 0.19,2.83 ± 0.16
AGEDNDELIDNLKEAQYIRTELVE [PCMTD2],5.13 ± 0.18,5.02 ± 0.17,–,–
AGGSSGTTARERPCVRPGVSGSPV [FBF1],4.58 ± 0.16,4.47 ± 0.32,–,–
AGGSSSTPTPQALYPDLSCPEGLE [SPSB2],5.15 ± 0.31,5.21 ± 0.25,–,–
AGNDPYCFVEFHEHRHAAAALAAM [TIA1],2.66 ± 0.17,2.7 ± 0.25,–,–
AGNSSRNSSQSSSDGSCKTAGEMV [BTBD10],5.16 ± 0.35,5.14 ± 0.22,–,–
AGQKRKHSEGRVEVYYDGQWGTVC [LOXL2],2.87 ± 1.3,3.35 ± 1,–,–
AGQRGEPGPKGDPGEKSHWGEGLH [EMID1],4.34 ± 0.36,–,–,–
AKAQVRKAVQYEEKNPCRTLCCFC [STX11],2.97 ± 0.24,3.36 ± 0.54,–,–

Sequence,protein stability index [1],protein stability index [2],"protein stability index (treatment: DMSO, c terminus: native)","protein stability index (treatment: MLN4924 1 uM, 8 h, c terminus: native)"
AKKLPPVQESQSERLQAAGTDSAG [ELOA2],5.2 ± 0.18,5.09 ± 0.24,–,–
AKLAINQGMEVDLVTGLAIEEACY [AUH],2.07 ± 0.21,2.32 ± 0.44,–,–
AKNYIWALSEILRIGKRPDLLTFV [NEUROD6],2.53 ± 0.52,2.69 ± 0.92,–,–
AKQKLDFFIRTSDSFDKFDFCEPS [PCMTD2],2.87 ± 0.26,3.02 ± 0.47,–,–
AKVPRPPSTLLPTPEEQGELEPLK [FOXJ1],5.19 ± 0.23,5.3 ± 0.18,–,–
AKYPHDVVNHLSCDEARNHYGGVV [SPACA9],3.5 ± 0.27,3.58 ± 0.082,–,–
ALAREFSCPFFETSAAYRYYIDDV [RIT1],2.29 ± 0.13,2.08 ± 0.12,–,–
ALGILIFEMLSGFPPFFDDNPFGI [PRKX],3.11 ± 1.7,3.31 ± 0.25,–,–
ALGTSWTLPLQDRELGPEELDELQ [CABP4],5.4 ± 0.097,5.23 ± 0.16,–,–
ALKEELLFMKKNHEEEVKGLQAQI [KRT18],3.79 ± 0.36,3.95 ± 0.28,–,–
ALMHTLQRHRDILQVIYWARDVFI [GOSR1],2.84 ± 0.5,2.26 ± 0.47,–,–
ALPEAPAPLLPHITATSLLGTRES [BCL2L13],4.67 ± 0.23,4.56 ± 0.16,–,–
ALRLEVRAGPDSAGIALYSHEDVC [CARM1],2.61 ± 0.64,2.55 ± 0.56,–,–
ALSPAGVCGGAQRPGHLPGLLLGS [CDC25B],2.51 ± 0.22,2.93 ± 0.46,–,–
ANWQPKVAPATWSAGVPPSAPLQG [SNAP91],4 ± 0.098,3.85 ± 0.25,–,–
APAMYDDESAIDFSAYIDSMAAVP [CEBPD],4.32 ± 0.27,3.62 ± 0.15,–,–
APAPSQVKSKAKKTVDKHSDEYKI [CEBPB],5.36 ± 0.17,5.37 ± 0.25,–,–
APIRVRNLTIRAGALTGKENNMLQ [DMRTC1],3.46 ± 0.23,3.26 ± 0.19,–,–
APLQADLTEQVWKVQDALQNQSDS [SCARA5],5.26 ± 0.24,5.24 ± 0.28,–,–
APPPADSAPQQNGQPLRPLVPDAS [PDLIM7],5.27 ± 0.12,5.37 ± 0.13,–,–
AQEPSAVPRAGPLTVNTEAQQLLR [FOXJ1],4.62 ± 0.39,4.9 ± 0.17,–,–
AQKQRLERALDATEVPFSITTDNL [TEKT4],4.72 ± 0.29,4.77 ± 0.22,–,–

Sequence,protein stability index [1],protein stability index [2],"protein stability index (treatment: DMSO, c terminus: native)","protein stability index (treatment: MLN4924 1 uM, 8 h, c terminus: native)"
AQLSELRCEMEAQNQEYKMLLDIK [KRT15],3.65 ± 0.33,3.65 ± 0.38,–,–
AQQIRLHHFNSSHLEIDDMYTPAY [MYORG],2.86 ± 0.26,2.91 ± 0.21,–,–
AQSPGAVEEILDRENKRMADSLAS [BET1L],5.12 ± 0.14,5.35 ± 0.26,–,–
AQTELLCCLVKMESLEPDAQVLML [FANCE],2.61 ± 0.68,2.34 ± 0.16,–,–
AREELMESRMRIESLSSQLSNLQK [LMNB1],3.95 ± 0.18,4.07 ± 0.19,–,–
ARIYEETLNILLYEAQDGRGPDNA [KCTD10],3.23 ± 0.28,3.04 ± 0.6,–,–
ARLLGALAARSGAAYGPGARGEDR [TSPAN10],3.89 ± 0.73,3.91 ± 0.18,–,–
ASSGLTVEVDAPKSQDLAKIMADI [KRT18],4.45 ± 0.3,4.57 ± 0.057,–,–
ATLICMAMQASKATKITLSAIYKW [FOXJ1],3.15 ± 0.48,2.92 ± 0.71,–,–
ATQQARKRNFISSKSKQPAGHRRP [C22orf31],4.58 ± 0.27,4.71 ± 0.31,–,–
ATSVTVPGAGVPSGSGGTVAPATM [ZBTB22],4.7 ± 0.38,4.64 ± 0.43,–,–
ATYRRLLEGEDAHLSSQQASGQSY [KRT16],4.46 ± 0.22,4.4 ± 0.29,–,–
AVAQTAHLPADSEVTLEANPTSAP [RSAD1],5.4 ± 0.14,5.35 ± 0.23,–,–
AVNQEAMNNAQRIEKWVILEKDFS [ACSBG2],3.16 ± 0.31,3.47 ± 0.46,–,–
AWNPEDRSLNVFVKDDDRLTFHRH [SPSB4],3.65 ± 0.27,3.76 ± 0.19,–,–
AYVSPEILNTTGTYSGKAADVWSL [TRIB1],2.51 ± 0.3,2.37 ± 0.52,–,–
AYYRGAVGALLVYDIAKHLTYENV [RAB11A],3.11 ± 0.5,2.89 ± 0.59,–,–
CALNALTTTVCLVAAALRYLQIFA [FAM189A2],2.75 ± 0.37,3.1 ± 0.23,–,–
CANFGDQGITMGCWDMYRHDIDCQ [LOXL2],2.42 ± 0.29,2.6 ± 0.57,–,–
CCIDWTHVTDPLIGCKKPVSASGK [SMG5],3.05 ± 0.21,3.09 ± 0.18,–,–
CCIVTSTYGWTANMERIMKAQALR [HSP90AB1],–,2.42 ± 0.4,–,–
